In patent publication US20090123447A1, “COMPOSITIONS AND METHODS TO INHIBIT RNA VIRAL REPRODUCTION” (priority 2007, published 2009):

What was measured:
[1] = test system: subgenomic HCV replicon of genotype 1b; test: microbe, parasite or virus in culture; type: cell-based, hepatitis C virus
Procedure: Huh7 human hepatoma cells were cultured in Dulbecco's modified Eagle medium (DMEM; Invitrogen, Carlsbad, Calif., USA) supplemented with 10% fetal bovine serum (FBS; Invitrogen), 100 units/ml of penicillin, and 100 μg/ml of streptomycin in a 5% CO2 incubator. SgPC2 cells are G418-selected, pooled Huh7 cell clones that support the continuous replication of a subgenomic HCV replicon of genotype 1b and [29] (GenBank Accession No. AJ242652) that carries a S11791 adaptive mutation within the NS5A region. SgPC2 cells were maintained in the above medium supplemented with 0.5 mg/ml G418 (Invitrogen). G418 was removed at least 1 day before cell treatments.

[2] = test system: intracellular calcium concentration ([Ca^2+]i); test: [Ca^2+]i measurement with Indo-1 AM in SgPC2 cells; type: cell-based, human; settings: 24 h, 2 mU/ml GO
Procedure: Briefly, on the day of the experiment, cells were washed in Krebs-Ringer phosphate buffer (KRPH; pH 7.4, containing 1.0 mM MgSO4, 1.3 mM CaCl2, 10 mM Hepes, 5 mM glucose, 125 mM NaCl, 5 mM KCl, and 10 mM sodium phosphate) and subsequently loaded with 10-20 μM Indo-1 AM (70 μl/coverslip; Molecular Probes, Inc., Eugene, Oreg., USA) containing 10 μM probenecid (Molecular Probes) for 30 min at 37° C. The attached cells were washed and bathed in KRPH/probenecid at 4° C. or room temperature until further analysis. Then, coverslips were individually submerged into KRPH and preequilibrated inside the […] fluorimeter (Hitachi) in darkness for 3 min, and [Ca^2+]i was monitored continuously at 37° C., with excitation at […] and emission at 400 and 450 nm. H2O2 and other agents were injected at different time points, as indicated under Results. [Ca^2+]i was calculated as described. Rmax was determined by adding 8-16 μM digitonin and Rmin with 10 mM ethylene glycol-bis(β-aminoethyl)-N,N,N'-tetraacetic acid (EGTA). […] The baseline, which represented unstimulated cells scanned over time, was plotted along with other measurements or subtracted from the other plots. Cells were serum-depleted, 1 day before the experiment, by incubating them overnight in DMEM plus 0.5% FBS. […] Then, CaCl2 was added before determining the Rmax for each run.

JFH1 HCV (genotype 2a) = type: cell-based, hepatitis C virus; settings: JFH1-transfected cells, 0.25 mU/mL GO plus glucose
Procedure: (§1) For viral RNA transfection, JFH1, JFH1/GND, and pSGR-JFH1-Luc were linearized with XbaI and used to synthesize the corresponding positive-sense stranded HCV RNA, as previously described (68). Then, 5×10^6 Huh7 cells were rinsed with Opti-Mem (Invitrogen), mixed briefly with 10-20 μg of the in vitro transcribed RNA in 0.4 ml of Opti-Mem, and then electroporated at 260 volts and 950 μF. […] Medium was changed daily. For infection with HCV, medium collected from JFH1 RNA-transfected cells were cleared of cell debris, as described, and added to naïve Huh7 cells. Typically, 1:2 or 3:2 ratio of the virus-containing medium and fresh cell culture medium were used.
JFH1/GND was used as the negative control. […]
Intracellular JFH1 HCV RNA content was also analyzed by qRT-PCR (Taqman), using ABI7300 real time PCR system and one step RT-PCR kit from Applied Biosystems. […] All samples were analyzed in duplicates or triplicates. […] The level of 18S rRNA was also analyzed, using manufacturer-optimized protocol, as the control.
To analyze the amount of the extracellular HCV RNA, medium from the cells were cleared by low-speed centrifugation and then, treated with RNaseA at room temperature. Then, the RNA samples were extracted, using Trizol LS Reagent (Invitrogen), and analyzed for HCV RNA content by qRT-PCR.

[3] = test system: SgJFH1-Luc RNA (subgenomic JFH1 replicon); test: SgJFH1-Luc RNA replication in Huh7 cells, luciferase assay; type: cell-based, hepatitis C virus; settings: Huh7 cells transfected with SgJFH1-Luc RNA
Procedure: as §1
SgJFH1-Luc RNA replication was also monitored by firefly luciferase reporter assay, using a kit from Promega.
To investigate whether the HCV RNA replication is modulated by ROS, Huh7 cells were transfected with the SgJFH1-Luc RNA and treated with GO plus glucose.
After 24 and 48 hours, respectively, the cells were collected in PBS, centrifuged, lysed in the reporter lysis buffer (Promega), and analyzed for luciferase activity.

JFH1-transfected cells = test: ATP concentration as cytotoxicity measure in JFH1-transfected cells; settings: JFH1-transfected cells, concentrations used
Procedure: Determination of ATP concentrations—ATP level was measured, using Somatic Cell ATP Assay kit from Sigma-Aldrich, as previously described (68). Protein level was determined with bicinchoninic acid kit (Pierce Biotechnology, Inc., Rockford, Ill.).
ATP concentration was measured to determine if the treatments were cytotoxic to the cells.

HCV NS5A = settings: after 24 h of GO exposure
Procedure: Cells were sonicated in 2× Laemmli buffer and total protein samples were analyzed for HCV NS5A level by Western blot, using monoclonal anti-NS5A antibodies (Biodesign) and the corresponding horseradish peroxidase-conjugated secondary antibodies. Chemiluminescent images were processed with an ECL kit from Amersham Pharmacia and analyzed with the IS2000 gel imaging system (Kodak).

B1: GO: enzyme which catalyzes the oxidation of β-D-glucose to D-glucono-1,5-lactone and hydrogen peroxide (protein, UniProt P13006 17-605, looked up)
Glucose oxidase: LPHYIRSNGIEASLLTDPKDVSGRTVDYIIAGGGLTGLTTAARLTENPNISVLVIESGSYESDRGPIIEDLNAYGDIFGSSVDHAYETVELATNNQTALIRSGNGLGGSTLVNGGTWTRPHKAQVDSWETVFGNEGWNWDNVAAYSLQAERARAPNAKQIAAGHYFNASCHGVNGTVHAGPRDTGDDYSPIVKALMSAVEDRGVPTKKDFGCGDPHGVSMFPNTLHEDQVRSDAAREWLLPNYQRPNLQVLTGQYVGKVLLSQNGTTPRAVGVEFGTHKGNTHNVYAKHEVLLAAGSAVSPTILEYSGIGMKSILEPLGIDTVVDLPVGLNLQDQTTATVRSRITSAGAGQGQAAWFATFNETFGDYSEKAHELLNTKLEQWAEEAVARGGFHNTTALLIQYENYRDWIVNHNVAYSELFLDTAGVASFDVWDLLPFTRGYVHILDKDPYLHHFAYDPQYFLNELDLLGQAAATQLARNISNSGAMQTYFAGETIPGDNLAYDADLSAWTEYIPYHFRPNYHGVGTCSMMPKEMGGVVDNAARVYGVQGLRVIDGSIPPTQMSSHVMTVFYAMALKISDAILEDYASMQ
effect on HCV RNA level / replication [1]: dose-dependently suppressed
intracellular calcium concentration [2]: 66.4 ± 10.7 nM
decrease of intracellular HCV RNA content (JFH1 HCV (genotype 2a)): 30±8%
HCV RNA level by luciferase activity [3]: decreased HCV RNA level
cytotoxicity (ATP concentration, cell survivability) (JFH1-transfected cells): did not cause any loss in cell survivability
NS5A protein level (HCV NS5A): decrease

B2: catalase: exogenous catalase (Sigma-Aldrich) added to confirm the role of H2O2 (protein, UniProt P00432 2-527, looked up)
Catalase: ADNRDPASDQMKHWKEQRAAQKPDVLTTGGGNPVGDKLNSLTVGPRGPLLVQDVVFTDEMAHFDRERIPERVVHAKGAGAFGYFEVTHDITRYSKAKVFEHIGKRTPIAVRFSTVAGESGSADTVRDPRGFAVKFYTEDGNWDLVGNNTPIFFIRDALLFPSFIHSQKRNPQTHLKDPDMVWDFWSLRPESLHQVSFLFSDRGIPDGHRHMNGYGSHTFKLVNANGEAVYCKFHYKTDQGIKNLSVEDAARLAHEDPDYGLRDLFNAIATGNYPSWTLYIQVMTFSEAEIFPFNPFDLTKVWPHGDYPLIPVGKLVLNRNPVNYFAEVEQLAFDPSNMPPGIEPSPDKMLQGRLFAYPDTHRHRLGPNYLQIPVNCPYRARVANYQRDGPMCMMDNQGGAPNYYPNSFSAPEHQPSALEHRTHFSGDVQRFNSANDDNVTQVRTFYLKVLNEEQRKRLCENIAGHLKDAQLFIQKKAVKNFSDVHPEYGSRIQALLDKYNEEKPKNAVHTYVQHGSHLSAREKANL
effect on the suppression of HCV RNA by GO ([1]; SgPC2 cells, GO 24 h, 130-200 U/ml catalase or 2 μM BAPTA-AM): attenuated the suppression by GO

B3: IFN-γ: interferon-γ, known to inhibit HCV RNA replication in Huh7 cells (protein, UniProt P01579 24-161, looked up)
Interferon gamma: QDPYVKEAENLKKYFNAGHSDVADNGTLFLGILKNWKEESDRKIMQSQIVSFYFKLFKNFKDDQSIQKSVETIKEDMNVKFFNSNKKKRDDFEKLTNYSVTDLNVQRKAIHELIQVMAELSPAAKTGKRKRSQMLFRG
effect on HCV RNA replication after 30 min of treatment ([1]; 30 min treatment): no appreciable effect
HCV RNA level, % of control level ([1]; SgPC2 cells, 24 h, 100 U/ml): about 15%
